Laboratory results: paper PMC4569573

What was measured:
[1] = biological target: human AmphiphysinII/Bin1 N-BAR domain (human); test: stopped-flow refolding kinetics, single mixing (fluorescence); unfolded in 4 M urea, refolding by 11-fold dilution to 0.4 M urea, 0.1 to 5 μM N-BAR, 20 mM Na phosphate, 100 mM NaCl, pH 7.4, 15°C; step: two monomeric intermediates I to dimeric intermediate I2; λ2 fixed to the value from fluorescence anisotropy
[2] = biological target: human AmphiphysinII/Bin1 N-BAR domain (human); test: double-mixing stopped-flow N assay (fluorescence); unfolded in 4 M urea, refolding at 1 to 5 μM N-BAR in 0.66 M urea for 0.1 to 300 s, then unfolding in 4.5 M urea; λ2 from the amplitudes of the fast unfolding phase λ5; 15°C; step: monomers to dimeric intermediate I2

λ2, second-order rate constant of the dimerization step at 0.4 M urea [1]: 620000 M⁻¹ s⁻¹
λ2, second-order rate constant of the dimerization step at 0.66 M urea, 1 μM N-BAR [2]: 260000 M⁻¹ s⁻¹
λ2, second-order rate constant of the dimerization step at 0.66 M urea, 2 μM N-BAR [2]: 480000 M⁻¹ s⁻¹
λ2, second-order rate constant of the dimerization step at 0.66 M urea, 5 μM N-BAR [2]: 430000 M⁻¹ s⁻¹
Substance: human AmphiphysinII/Bin1 N-BAR domain (domain or fragment)
